# Laboratory results published in patent publication US9249224B2 (RINAT NEUROSCIENCE CORP., priority 2011, dated 2016).
# T1: human GHR (Homo sapiens, UniProt P10912, I544L)
# T1 construct: expressed in transfected cells; host or cells: HEK293
# T1 sequence (P10912 19-638 I544L): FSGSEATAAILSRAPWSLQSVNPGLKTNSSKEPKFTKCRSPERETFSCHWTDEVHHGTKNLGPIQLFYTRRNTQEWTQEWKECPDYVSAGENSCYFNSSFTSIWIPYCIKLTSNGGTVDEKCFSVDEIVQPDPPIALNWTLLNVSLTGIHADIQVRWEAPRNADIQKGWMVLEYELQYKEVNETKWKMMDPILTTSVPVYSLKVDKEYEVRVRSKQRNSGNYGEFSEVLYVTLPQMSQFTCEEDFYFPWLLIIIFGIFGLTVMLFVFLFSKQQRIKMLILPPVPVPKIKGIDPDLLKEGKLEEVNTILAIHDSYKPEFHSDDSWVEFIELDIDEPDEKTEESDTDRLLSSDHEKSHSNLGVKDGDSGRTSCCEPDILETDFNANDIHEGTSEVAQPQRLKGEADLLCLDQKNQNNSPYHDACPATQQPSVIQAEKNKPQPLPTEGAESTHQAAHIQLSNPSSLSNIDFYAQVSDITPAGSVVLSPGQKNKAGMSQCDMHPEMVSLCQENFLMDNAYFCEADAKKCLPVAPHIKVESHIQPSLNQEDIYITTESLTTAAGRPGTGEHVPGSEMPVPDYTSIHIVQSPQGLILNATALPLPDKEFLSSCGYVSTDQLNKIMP
# Target: T1, human GHR
# Assay: STAT5 phosphorylation in vitro assay, human GHR-transfected HEK293 cells
# Type: cell-based
# Details: for fluorescent signal ave (phospho-STAT5): Table 7, human GHR-transfected cells
# Procedure: This Example illustrates the effect of GHR antibodies in an in vitro STAT5 phosphorylation assay. In this Example, the ability of GHR antibodies to block GHR downstream signaling was tested in vitro using human GHR overexpressing cells and cyno GHR overexpressing cells. […]
# Antibodies SS3 and SS1 (hIgG2Δa) were tested using a STAT5 phosphorylation assay. For the STAT5 assay, full-length human GHR overexpressing HEK293 cells or full-length cyno GHR-overexpressing HEK293 cells were cultured, counted by automated cell counter, and seeded in warm freestyle media in 12-well plates (5×10^5 cells/well in 1 ml media). Cells were allowed to settle for 3 hours at 37° C. then treated with 2.5, 5, 50, or 500 nM of SS1 or SS3 in media.
# Millipore™ lysis buffer with 1× protease inhibitor cocktail and sodium orthovanadate was added to each pellet at a volume of 100 ul/pellet Cells were vortexed and incubated for 15 minutes at room temp with occasional vortexing, Millipore™ Assay buffer 2 with 1× protease inhibitor cocktail and 1 mM sodium orthovanadate was then added to the lysates at 200 ul/well.
# 25 ul/well of sample lysate was added to the wells and the beads and samples were incubated overnight at 4′C with shaking in the dark. […]
# The plate was read using a Luminex 200 instrument and florescent signal emitted from the samples was measured.
molecule,measurement,setting,value
"SS1: humanized GHR antagonist antibody; VL SEQ ID NO: 7, VH SEQ ID NO: 8; hIgG2Δa heavy chain SEQ ID NO: 134, light chain SEQ ID NO: 135 (antibody, Humanized and/or affinity matured antibody sequence) heavy: EVQLVESGGGLVKPGGSLRLSCAASGFTFSDAWMDWVRQAPGKGLEWVAEIRSKANYHATYYAESVKGRFTISRDDSKNTLYLQMNSLKTEDTAVYYCTLIRDYWGQGTLVTVSSASTKGPSVFPLAPCSRSTSESTAALGCLVKDYFPEPVTVSWNSGALTSGVHTFPAVLQSSGLYSLSSVVTVPSSNFGTQTYTCNVDHKPSNTKVDKTVERKCCVECPPCPAPPVAGPSVFLFPPKPKDTLMISRTPEVTCVVVDVSHEDPEVQFNWYVDGVEVHNAKTKPREEQFNSTFRVVSVLTVVHQDWLNGKEYKCKVSNKGLPSSIEKTISKTKGQPREPQVYTLPPSREEMTKNQVSLTCLVKGFYPSDIAVEWESNGQPENNYKTTPPMLDSDGSFFLYSKLTVDKSRWQQGNVFSCSVMHEALHNHYTQKSLSLSPGK light: EIVLTQSPGTLSLSPGERATLSCTATSSVSSSYLNWYQQKPGQAPRLLIYSTSNLASGIPDRFSGSGSGTDFTLTISRLEPEDFAVYYCHQYHRSTPTFGGGTKVEIKRTVAAPSVFIFPPSDEQLKSGTASVVCLLNNFYPREAKVQWKVDNALQSGNSQESVTEQDSKDSTYSLSSTLTLSKADYEKHKVYACEVTHQGLSSPVTKSFNRGEC",fluorescent signal ave (phospho-STAT5),2.5 nM antibody + 4.5 nM GH,60
same,fluorescent signal ave (phospho-STAT5),5 nM antibody + 4.5 nM GH,22
same,fluorescent signal ave (phospho-STAT5),50 nM antibody + 4.5 nM GH,0
same,fluorescent signal ave (phospho-STAT5),500 nM antibody + 4.5 nM GH,5
same,effect on GH-stimulated STAT5 signaling,"cells expressing human GHR, 4.5 nM GH",blocked STAT5 signaling in a dose-dependent manner
